This is an account of results in PMC7938106, “In vitro complex formation of human PYRIN domain-only protein 3 prevented by self-oligomerization of ASC PYD domain” (Saudi Journal of Biological Sciences, 2021).

The data set concerns the molecule itself. The data set is described as follows: SEC-MALS; POP3 PYD (1-83) alone on column HR 10/30 in 20 mM Tris-HCl pH 8.0, 150 mM NaCl; three-angle light scattering and refractive index detectors, ASTRA software. Background: In gel filtration, larger molecules generally elute earlier.

B1: PYD domain of PYRIN Domain-Only Protein 3 (POP3), amino acids 1-83 (domain or fragment, human, UniProt W6CW81 1-83, looked up)
chain: MESKYKEILLLTSLDNITDEELDRFKCFLPDEFNIATGKLHTLNSTSSQLDLKRWHGVCSEEDRIFQKLNYMLVAKCLREEQE
notes: PYRIN domain-only protein 3 (POP3), human, PYD domain, residues 1-83 of the 113-residue protein; The vector probably adds linker residues before the His6; also called POP3 PYD (1-83 aa); POP3PYD; not shown: His6, C-terminal, kept
Take B1: the stoichiometry N – broadly, a count of units in the complex or per binding partner – worked out at 2.
